Measurements taken from article PMC3606566, “Structure of Pseudomonas aeruginosa inosine 5′-monophosphate dehydrogenase” (Acta Crystallographica Section F: Structural Biology and …, 2013).

Molecular target: the molecule itself
Assay: crystal structure; apo PaIMPDH, sitting-drop vapour diffusion, 0.2 M sodium acetate pH 4.5, 40% MPD, room temperature; space group I4, one subunit in the asymmetric unit, tetramer by the crystallographic fourfold axis; 2.25 Å

B1: Pseudomonas aeruginosa inosine 5′-monophosphate dehydrogenase (enzyme, UniProt Q9HXM5 1-489, looked up)
chain: MLRISQEALTFDDVLLIPGYSEVLPKDVSLKTRLTRGIELNIPLVSAAMDTVTEARLAIAMAQEGGIGIIHKNMGIEQQAAEVRKVKKHETAIVRDPVTVTPSTKIIELLQMAREYGFSGFPVVEQGELVGIVTGRDLRVKPNAGDTVAAIMTPKDKLVTAREGTPLEEMKAKLYENRIEKMLVVDENFYLRGLVTFRDIEKAKTYPLASKDEQGRLRVGAAVGTGADTGERVAALVAAGVDVVVVDTAHGHSKGVIERVRWVKQTFPDVQVIGGNIATAEAAKALAEAGADAVKVGIGPGSICTTRIVAGVGVPQISAIANVAAALEGTGVPLIADGGIRFSGDLAKAMVAGAYCVMMGSMFAGTEEAPGEIELFQGRSYKSYRGMGSLGAMSGSQGSSDRYFQDASAGAEKLVPEGIEGRVPYKGALSAIVHQLMGGLRAAMGYTGSADIQQMRTQPQFVRITGAGMAESHVHDVQITKEAPNYRVG
notes: Inosine 5′-monophosphate dehydrogenase of Pseudomonas aeruginosa, full-length gene PA3770, amino acids 1-489, synthesised and codon-optimised for E. coli; Modified pET15b: N-terminal His tag followed by a TEV protease cleavage site; The His tag was still present at size-exclusion chromatography; The model holds only residues 1-91, 205-370 and 426-467; also called PaIMPDH; IMPDH; not shown: His …
stoichiometry N: 4
